Measured values as given in patent US20070212363A1.

Tests used:
Experiment in all cases: cell-based or functional assay
[1] = target: HIV-1 JR-FL envelope glycoprotein (Env) (HIV-1 strain JR-FL)
[2] = target: HIV-1 AD8 envelope glycoprotein (Env) (HIV-1 strain AD8)
[3] = target: HIV-1 IIIB envelope glycoprotein (Env) (HIV-1 strain IIIB)

Substance	Neutralizing activity (percentage) at 100 µg/mL [1] [%]	percentage of maximal infection, U87.CD4.CCR5.CXCR4 cells, 100 µg/mL antibody [1] [%]	Neutralizing activity (percentage) at 100 µg/mL [2] [%]	percentage of maximal infection, U87.CD4.CCR5.CXCR4 cells, 100 µg/mL antibody [2] [%]	Neutralizing activity (percentage) at 100 µg/mL [3] [%]	percentage of maximal infection, U87.CD4.CCR5.CXCR4 cells, 100 µg/mL antibody [3] [%]
Fab X5	83	27	97	8.7	100	10
IgG1 X5 (antibody)	38	72	51	55	84	28
